We go through seven molecules from patent publication US20230050440A1 (Seagen, published 2023).

Substitutions are numbered along the chain they refer to.

Sequences and labels used below:
T1: murine FcγRIV expressed on CHO cells (mouse, UniProt A0A0B4J1G0 21-249)
T1 construct: also called mCD16 (the murine form of FcγRIVa)
T1 sequence: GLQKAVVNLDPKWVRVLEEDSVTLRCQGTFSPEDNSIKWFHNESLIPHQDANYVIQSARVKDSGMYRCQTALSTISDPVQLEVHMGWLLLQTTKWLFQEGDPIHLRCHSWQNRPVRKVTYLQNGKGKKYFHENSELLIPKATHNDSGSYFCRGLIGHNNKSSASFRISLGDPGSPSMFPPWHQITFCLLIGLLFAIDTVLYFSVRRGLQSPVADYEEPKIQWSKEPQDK

T2: human TIGIT expressed on cells (human, UniProt Q495A1 22-244)
T2 construct: HEK 293 cells stably expressing human TIGIT, primary human T cells or Jurkat effector cells; the cell is named under assay; also called Human TIGIT HEK
T2 sequence: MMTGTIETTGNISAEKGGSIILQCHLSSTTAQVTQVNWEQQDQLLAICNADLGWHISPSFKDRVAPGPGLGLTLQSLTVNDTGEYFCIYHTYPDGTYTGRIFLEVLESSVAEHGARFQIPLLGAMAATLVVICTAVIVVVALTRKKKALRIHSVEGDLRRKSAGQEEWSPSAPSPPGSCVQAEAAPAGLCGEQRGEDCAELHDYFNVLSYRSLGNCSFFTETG

T3: recombinant dimeric human TIGIT-Fc (Acro Biosystems TIT-H5254) (human, UniProt Q495A1 22-141)
T3 construct: Bought protein; also called hTIGIT-Fc; not shown: Fc part of the bought fusion protein
T3 sequence: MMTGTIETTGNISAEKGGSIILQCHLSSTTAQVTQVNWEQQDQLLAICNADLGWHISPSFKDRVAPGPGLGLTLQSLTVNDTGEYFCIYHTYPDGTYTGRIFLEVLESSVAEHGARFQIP

T4: monomeric human TIGIT (Sino Biological 10917-H08H) (human, UniProt Q495A1 22-138, biotinylated in the MSD-SET assay)
T4 construct: Bought protein; also called Human TIGIT monomer; Human TIGIT-His; not shown: His tag
T4 sequence: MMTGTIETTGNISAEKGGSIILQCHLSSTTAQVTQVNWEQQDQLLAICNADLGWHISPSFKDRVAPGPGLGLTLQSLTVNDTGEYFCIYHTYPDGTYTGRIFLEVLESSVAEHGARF

B1: anti-TIGIT c13 mIgG2a LALA-PG (antibody)
heavy chain: QVQLVQSGAEVKKPGSSVKVSCKASGGTFSSYAISWVRQAPGQGLEWMGSIIPIFGTANYAQKFQGRVTITADESTSTAYMELSSLRSEDTAVYYCARGPSEVGAILGYVWFDPWGQGTLVTVSSAKTTAPSVYPLAPVCGDTTGSSVTLGCLVKGYFPEPVTLTWNSGSLSSGVHTFPAVLQSDLYTLSSSVTVTSSTWPSQSITCNVAHPASSTKVDKKIEPRGPTIKPCPPCKCPAPNAAGGPSVFIFPPKIKDVLMISLSPIVTCVVVDVSEDDPDVQISWFVNNVEVHTAQTQTHREDYNSTLRVVSALPIQHQDWMSGKEFKCKVNNKDLGAPIERTISKPKGSVRAPQVYVLPPPEEEMTKKQVTLTCMVTDFMPEDIYVEWTNNGKTELNYKNTEPVLDSDGSYFMYSKLRVEKKNWVERNSYSCSVVHEGLHNHHTTKSFSRTPGK
light chain: not shown
notes: also called LALA TIGIT
B2: Clone 13 (antibody, IgG1, V domains shown)
VH: QVQLVQSGAEVKKPGSSVKVSCKASGGTFSSYAISWVRQAPGQGLEWMGSIIPIFGTANYAQKFQGRVTITADESTSTAYMELSSLRSEDTAVYYCARGPSEVGAILGYVWFDPWGQGTLVTVSS
VL: not shown
notes: also called anti-TIGIT clone 13; c13 hIgG1
B3: anti-TIGIT clone 13 mIgG1 (antibody)
heavy: QVQLVQSGAEVKKPGSSVKVSCKASGGTFSSYAISWVRQAPGQGLEWMGSIIPIFGTANYAQKFQGRVTITADESTSTAYMELSSLRSEDTAVYYCARGPSEVGAILGYVWFDPWGQGTLVTVSSAKTTPPSVYPLAPGSAAQTNSMVTLGCLVKGYFPEPVTVTWNSGSLSSGVHTFPAVLESDLYTLSSSVTVPSSPRPSETVTCNVAHPASSTKVDKKIVPRDCGCKPCICTVPEVSSVFIFPPKPKDVLTITLTPKVTCVVVDISKDDPEVQFSWFVDDVEVHTAQTQPREEQFNSTFRSVSELPIMHQDWLNGKEFKCRVNSAAFPAPIEKTISKTKGRPKAPQVYTIPPPKEQMAKDKVSLTCMITDFFPEDITVEWQWNGQPAENYKNTQPIMNTNGSYFVYSKLNVQKSNWEAGNTFTCSVLHEGLHNHHTEKSLSHSPGK
light: not shown
notes: also called c13 mIgG1; 13-1
B4: Clone 25 (antibody, V domains shown)
VH: QVQLVQSGAEVKKPGASVKVSCKASGYTFTSYAISWVRQAPGQGLEWMGWISAYNGNTNYAQKLQGRVTMTTDTSTSTAYMELRSLRSDDTAVYYCARDLSSFWSGDVLGAFDIWGQGTMVTVSS
VL: DIQMTQSPSSLSASVGDRVTITCRASQSISSYLNWYQQKPGKAPKLLIYAASSLQSGVPSRFSGSGSGTDFTLTISSLQPEDFATYYCQQSVPPRTFGGGTKVEIK
notes: Fully human IgG produced in yeast; also called anti-TIGIT clone 25
B5: Clone 16 (antibody, V domains shown)
VH: QVQLVQSGAEVKKPGSSVKVSCKASGGTFSSYAISWVRQAPGQGLEWMGGIIPIFGTASYAQKFQGRVTITADESTSTAYMELSSLRSEDTAVYYCARQSTWHKLYGTDVWGQGTTVTVSS
VL: DIQMTQSPSSVSASVGDRVTITCRASQGISSWLAWYQQKPGKAPKLLIYAASSLQSGVPSRFSGSGSGTDFTLTISSLQPEDFATYYCQQGDSLPPTFGGGTKVEIK
notes: Fully human IgG produced in yeast
B6: Clone 2 (antibody, V domains shown)
VH: EVQLVESGGGLVQPGGSLRLSCAASGFTFSDHYMDWVRQAPGKGLEWVGRTRNKANSYTTEYAASVKGRFTISRDDSKNSLYLQMNSLKTEDTAVYYCARGQYYYGSSSRGYYYMDVWGQGTTVTVSS
VL: EIVLTQSPGTLSLSPGERATLSCRASQSVSSSYLAWYQQKPGQAPRLLIYGASSRATGIPDRFSGSGSGTDFTLTISRLEPEDFAVYYCQQAVPSPLTFGGGTKVEIK
notes: Fully human IgG produced in yeast; also called anti-TIGIT antibody clone 2
B7: Clone 54 (antibody, V domains shown)
VH: QVQLVQSGAEVKKPGASVKVSCKASGYTFTSYYMHWVRQAPGQGLEWMGIINPSGGSTSYAQKFQGRVTMTRDTSTSTVYMELSSLRSEDTAVYYCARASDSYGVGLYYGMDVWGQGTTVTVSS
VL: B6 VL with S30R, A92Y, V93Y, P94V
notes: as for B5

T6 sequence (chain, as listed by the source limits assumed): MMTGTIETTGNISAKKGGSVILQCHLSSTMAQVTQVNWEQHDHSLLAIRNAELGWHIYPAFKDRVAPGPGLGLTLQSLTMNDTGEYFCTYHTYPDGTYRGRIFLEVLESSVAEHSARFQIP

The target of one assay is T1, murine FcγRIV expressed on CHO cells. The assay can be described thus: flow cytometry on CHO cells expressing mCD16 (murine FcγRIV), anti-mouse IgG FITC. A general note: A flow cytometer gives signals particle by particle.
Method: To assess the extent of altered FcγRIV binding, antibody affinity to FcγRIV expressed on CHO cells was determined by FACS using anti-mouse IgG FITC.
The molecule B1 gave a Kd of 3330 nM.

For another assay, the target named is T5, cynomolgus monkey TIGIT expressed on cells (cynomolgus monkey).
T5 construct: HEK 293 cells stably expressing cynomolgus monkey TIGIT or cynomolgus T cells; also called Cyno TIGIT HEK
T5 sequence (chain, as listed by the source limits assumed): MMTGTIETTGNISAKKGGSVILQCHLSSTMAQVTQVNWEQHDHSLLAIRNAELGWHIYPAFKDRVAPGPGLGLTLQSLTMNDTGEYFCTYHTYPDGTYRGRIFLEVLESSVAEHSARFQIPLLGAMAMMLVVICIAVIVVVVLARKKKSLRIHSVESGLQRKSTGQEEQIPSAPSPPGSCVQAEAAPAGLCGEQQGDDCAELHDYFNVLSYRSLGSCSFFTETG
Put plainly: flow cytometry titration, HEK 293 cells expressing cynomolgus TIGIT.
Regarding B2, the EC50 came out at 0.13 µg/mL.

Consider B3, for which the EC50 is 0.07 µg/mL.

A further assay deals with T5, cynomolgus monkey TIGIT expressed on …. Put plainly: flow cytometry on HEK 293 cells expressing the target, MFI over parental HEK 293.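 Also: bound antibody detected with PE-labelled anti-human IgG, 15 min on ice. FOB equals median fluorescence on TIGIT-positive cells divided by that on target-negative cells.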
Method: (§1) HEK 293 cells were engineered to stably express high levels of human, mouse or cynomolgus monkey TIGIT by lentiviral transduction. […] Cells were then washed twice with wash buffer and incubated with anti-human IgG conjugated to PE for 15 minutes on ice. Cells were then washed twice with wash buffer and analyzed by flow cytometry on a FACS Canto II instrument (BD Biosciences). Fold over background (FOB) was calculated as the median fluorescence intensity (MFI) of the anti-TIGIT clone bound to target-positive cells divided by the MFI of the anti-TIGIT clone bound to target-negative cells.
Turning to B2, the “FOB (Fold Over Background)” value came to 224 fold.

With B4, the “FOB (Fold Over Background)” value was 247 fold.

With B5, the “FOB (Fold Over Background)” value was 27 fold.

Consider B6, for which the “FOB (Fold Over Background)” value worked out at 162 fold.

A further assay concerns the target T2, human TIGIT expressed on cells. Described as above.
Method: as §1
For the molecule B2, the “FOB (Fold Over Background)” value stood at 212 fold.

Regarding B4, the “FOB (Fold Over Background)” value was determined as 205 fold.

B5: the “FOB (Fold Over Background)” value stood at 192 fold.

With B6, the “FOB (Fold Over Background)” value was 158 fold.

Another assay concerns the target T6, cyno TIGIT-Fc (cynomolgus monkey).
T6 construct: not shown: Fc part
The assay can be described thus: BLI (ForteBio), IgG on sensor, avid.
The molecule B2 came in with a dissociation constant Kd of 1.04 nM.

Turning to B4, the equilibrium dissociation constant (Kd) was 1.5 nM.

On to B5, for which the dissociation constant (Kd) was 4.67 nM.

Molecule B6 came in with a Kd of 1.34 nM.

The target in a further assay is T2, human TIGIT expressed on cells. Put plainly: flow cytometry titration, HEK 293 cells expressing human TIGIT.
As to B2, it took 0.09 µg/mL to reach a half-maximal effect (EC50).

With B3, the EC50 stood at 0.05 µg/mL.

The target is the same in a further assay. The description is as above. The source holds these as a separate data set.
Method: (§2) HEK 293 cells were engineered to stably express high levels of human, mouse or cynomolgus monkey TIGIT by lentiviral transduction. […] Samples were analyzed on a CytoFLEX flow cytometer. Median fluorescence intensity of the FSC/SSC gated population was determined for each antibody concentration. NonLinear regression of Log(X) transformed data was used to generate EC50 values in GraphPad Prism 6.
In the case of B2, the concentration for a half-maximal effect (EC50) is 0.07 µg/mL.

Turning to B4, the EC50 amounted to 0.14 µg/mL.

Molecule B5 yielded an EC50 of 0.07 µg/mL.

In turn, B6 yielded a 50% effective concentration (EC50) of 0.15 µg/mL.

On to B7, for which the EC50 amounted to 0.11 µg/mL.

A further assay has the same target. The assay can be described thus: flow cytometry competition with human CD155-Fc on 293-hTIGIT cells.
As for B2, the “IC50 (read off the curve)” value was approximately 0.1 µg/mL.

In the case of B3, the “IC50 (read off the curve)” value was approximately 0.1 µg/mL.

In a further assay the target is T5, cynomolgus monkey TIGIT expressed on …. Put plainly: flow cytometry titration, HEK 293 cells expressing cynomolgus TIGIT. This is another data set of the same source.
Method: as §2
Turning to B2, a half-maximal effect (EC50) was put at 0.1 µg/mL.

In the case of B4, the EC50 stood at 0.19 µg/mL.

Consider B5, for which the EC50 is 0.1 µg/mL.

In turn, B6 yielded a concentration giving a half-maximal response (EC50) of 0.32 µg/mL.

Consider B7, for which the response was half-maximal at 11.4 µg/mL (EC50).

The next assay concerns the target T3, recombinant dimeric human TIGIT-Fc …. The assay can be described thus: BLI (ForteBio Octet RED384), IgG on AHQ sensor, 100 nM antigen, 1:1 model. In general terms: Biolayer interferometry detects binding as a change in optical thickness at a sensor tip.
Method: (§3) Briefly, ForteBio affinity measurements were performed by loading IgGs on-line onto AHQ sensors. Sensors were equilibrated off-line in assay buffer for 30 minutes and then monitored on-line for 60 seconds for baseline establishment. Sensors with loaded IgGs were exposed to 100 nM antigen (dimeric Fc-fusion antigen or monomeric antigen) for 3 minutes, and afterwards were transferred to assay buffer for 3 minutes for off-rate measurement. All binding and dissociation kinetics were analyzed using the 1:1 binding model.
Consider B2, for which the Kd came to 0.543 nM.

With B4, the Kd is 0.62 nM.

Regarding B5, the Kd amounted to 0.69 nM.

Take B6: the Kd is 0.956 nM.

Regarding B7, the Kd stood at 0.689 nM.

A further assay has as its target T4, monomeric human TIGIT (Sino Biological …). The assay is described as above.
Method: as §3
Turning to B2, the equilibrium dissociation constant (Kd) stood at 2.56 nM.

B4: binding was characterised by a dissociation constant (Kd) of 0.618 nM.

On to B5, for which the affinity, expressed as Kd, was 2.06 nM.

Take B6: the affinity, expressed as Kd, was 10.1 nM.

Take B7: the Kd stood at 3.49 nM.

The target in another assay is T2, human TIGIT expressed on cells. Put plainly: flow cytometry competition with hCD112-Fc-AlexaFluor647 on 293-hTIGIT cells; the axis 'Percent Blockade' falls as ligand signal is lost.
Method: (§4) Samples were analyzed on a CytoFLEX flow cytometer. Median fluorescence intensity of the FSC/SSC gated population was determined for each antibody concentration. Percent blockade was calculated relative to the MFI of the no antibody control. NonLinear regression of Log(X) transformed data was performed in GraphPad Prism 6.
With B2, the “IC50 (read off the curve)” value was approximately 0.1 µg/mL.

Another assay shares this target. Put plainly: flow cytometry competition with hCD155-Fc-AlexaFluor647 on 293-hTIGIT cells; the axis 'Percent Blockade' falls as ligand signal is lost.
Method: as §4
In the case of B2, the “IC50 (read off the curve)” value was approximately 0.1 µg/mL.

In the next assay the target is T4, monomeric human TIGIT (Sino Biological …). The assay can be described thus: BLI (ForteBio), IgG on sensor, monovalent.
Method: as §3
The optimized antibodies were also tested for ligand blocking in a CD155 ligand competition assay, and for binding to human TIGIT HEK, cyno TIGIT HEK, mouse TIGIT HEK, and parental HEK cell lines, as described above.
Regarding B2, the Kd turned out to be 2.63 nM.

In the case of B4, the Kd was 1.27 nM.

In the case of B5, binding was put at a Kd of 2.52 nM.

With B6, the affinity, expressed as Kd, was 8.18 nM.

Another assay addresses T2, human TIGIT expressed on cells. The assay can be described thus: flow cytometry competition with human CD112-Fc on 293-hTIGIT cells.
As for B2, the “IC50 (read off the curve)” value was approximately 0.1 µg/mL.

B3: the “IC50 (read off the curve)” value was approximately 0.04 µg/mL.

Usually Kd stands for the constant that tells how readily two partners part at equilibrium. One may read the EC50 as the concentration needed to bring the measured effect to its halfway point.
